For test [1], the target named is Chaetomium thermophilum dynactin p150^Glued coiled-coil 1B, p150_(CC1B) (residues 478-680) (Chaetomium thermophilum). Put plainly: SEC-MALS; complexes of IC fragments (IC_(1-88)/IC_(100-260); IC_(1-88)/p150_(CC1B)) and p150_(CC1B) alone; Superdex 200; conditions not given.
The target is the same in test [2]. Put plainly: AUC; sedimentation equilibrium, dimer to monomers; three concentrations in the range 15-60 µM, 10,000, 14,000 and 18,000 rpm, 20°C; global fit to a monomer-dimer self-association model.
In test [3] the target is Chaetomium thermophilum dynein intermediate chain IC_(100-260) (Chaetomium thermophilum). Put plainly: SEC-MALS; complexes of IC fragments (IC_(1-88)/IC_(100-260); IC_(1-88)/p150_(CC1B)) and p150_(CC1B) alone; Superdex 200; conditions not given.
Test [4] concerns the target Chaetomium thermophilum dynactin p150^Glued coiled-coil 1B, p150_(CC1B) (residues 478-680) (Chaetomium thermophilum). Put plainly: ITC; IC construct in the syringe (200-400 µM) titrated into p150_(CC1B) or NudECC in the cell (20-40 µM); 25°C; 50 mM sodium phosphate pH 7.5, 50 mM NaCl, 1 mM sodium azide; two-step model for p150_(CC1B), one-site model for NudECC.
Test [5] has as its target Chaetomium thermophilum nuclear distribution protein NudE coiled-coil, NudECC (residues 1-190) (Chaetomium thermophilum). The description is as above.
Test [6] has the same target. Put plainly: AUC; sedimentation equilibrium, dimer to monomers; three concentrations in the range 15-60 µM, 10,000, 14,000 and 18,000 rpm, 20°C; global fit to a monomer-dimer self-association model.

The substance “Chaetomium thermophilum dynactin p150^Glued coiled-coil 1B, p150_(CC1B) (residues 478-680) (domain or fragment)” came in with a stoichiometry N in test [1] of 2. In test [2], this substance showed a Kd of 30 nM and a stoichiometry N of 2.
As to “Chaetomium thermophilum dynein intermediate chain IC_(1-88) (domain or fragment)”, the stoichiometry N (IC (1-88) chains per p150 (CC1B) dimer) in test [1] worked out at 2. In test [3], the stoichiometry N turned out to be 1. In test [4], this substance gave a N of each step (two-step binding model) of 0.5 and a stoichiometry N of 1. In test [5], this substance gave a Kd of 300 nM and a stoichiometry N of 1.
On to “Chaetomium thermophilum nuclear distribution protein NudE coiled-coil, NudECC (residues 1-190) (domain or fragment)”, for which, in test [6], the Kd was 200 nM and the stoichiometry N turned out to be 2.
Consider “Chaetomium thermophilum dynein intermediate chain IC_(37-88) (domain or fragment)”, for which the Kd in test [4] was found to be 20000 nM.

Values taken from publication PMC9771362.
